The text below walks through data of US20200024330A1.

What all share (assay): cell-based or functional assay
Experiment [1] addresses HIV-1 ADA Env (pseudovirus) (HIV-1 ADA).
Experiment [2] deals with HIV-1 SF162 envelope protein (Env) on pseudotyped virus (HIV-1 isolate SF162) (UniProt P19550).
Experiment [3] concerns the target HIV-1 envelope glycoprotein (Env) of isolate MGRM-Chronic-B-012, on pseudovirus (HIV-1).
Experiment [4] addresses HIV-1 Env of isolate MGRM-C-028 (subtype C), on pseudovirus (HIV-1).
For experiment [5], the target named is HIV-1 Env of isolate 93RW029 (HIV-1).
Experiment [6] addresses HIV-1 Env of isolate PVO.4 (subtype B) (HIV-1).
For experiment [7], the target named is HIV-1 Env of isolate MGRM-Chronic-B-024 (subtype B) (HIV-1).
Experiment [8] has as its target HIV-1 Env of isolate MGRM-C-027 (subtype C), on pseudovirus (HIV-1).
The target of experiment [9] is HIV-1 envelope glycoprotein (Env) of isolate APV_6, on pseudovirus (HIV-1).
Experiment [10] concerns the target HIV-1 envelope glycoprotein (Env) of isolate MGRM-Chronic-B-002, on pseudovirus (HIV-1).
The target in experiment [11] is HIV-1 92RW020 Env (pseudovirus) (HIV-1).
Experiment [12] addresses HIV-1 MGRM-D-001 Env (pseudovirus) (HIV-1).
Experiment [13] deals with HIV-1 APV6 Env (pseudovirus) (HIV-1).
Experiment [14] has as its target HIV-1 MGRM-C-026 Env (pseudovirus) (HIV-1).
Experiment [15] concerns the target HIV-1 JRFL Env (pseudovirus) (HIV-1).
Experiment [16] deals with aMLV envelope on pseudovirus (negative control).
The target in experiment [17] is HIV-1 JR-CSF Env I323A (HIV-1 isolate JR-CSF) (UniProt P20871).
Experiment [18] deals with HIV-1 JR-CSF Env D417A (HIV-1 (isolate JR-CSF)) (UniProt P20871).
In experiment [19] the target is HIV-1 JR-CSF Env K343A (HIV-1 isolate JR-CSF) (UniProt P20871).
Experiment [20] concerns the target HIV-1 JR-CSF Env N332A (HIV-1 isolate JR-CSF) (UniProt P20871).
Experiment [21] deals with HIV-1 JR-CSF Env T388A (HIV-1 (isolate JR-CSF)) (UniProt P20871).
In experiment [22] the target is HIV-1 JR-CSF Env S199A (HIV-1 JR-CSF) (UniProt P20871).
For experiment [23], the target named is HIV-1 JR-CSF Env R419A (HIV-1 (isolate JR-CSF)) (UniProt P20871).
The target in experiment [24] is HIV-1 JR-CSF Env N302A (HIV-1 JR-CSF) (UniProt P20871).
Experiment [25] deals with HIV-1 JR-CSF Env S393A (HIV-1 (isolate JR-CSF)) (UniProt P20871).
The target in experiment [26] is HIV-1 JRFL envelope glycoprotein (Env) (HIV-1).
The target in experiment [27] is HIV-1 JR-CSF Env N355A (HIV-1 isolate JR-CSF) (UniProt P20871).
The target in experiment [28] is HIV-1 JR-CSF Env S334A (HIV-1 isolate JR-CSF) (UniProt P20871).
The target in experiment [29] is HIV-1 JR-CSF Env Q337A (HIV-1 isolate JR-CSF) (UniProt P20871).
Experiment [30] has as its target HIV-1 JR-CSF Env I420A (HIV-1 (isolate JR-CSF)) (UniProt P20871).
Experiment [31] deals with HIV-1 JR-CSF Env T341A (HIV-1 isolate JR-CSF) (UniProt P20871).
In experiment [32] the target is HIV-1 JR-CSF Env N392Q (HIV-1 (isolate JR-CSF)) (UniProt P20871).
Experiment [33] has as its target HIV-1 JR-CSF Env T413A (HIV-1 (isolate JR-CSF)) (UniProt P20871).
Experiment [34] addresses HIV-1 JR-CSF Env I326A (HIV-1 isolate JR-CSF) (UniProt P20871).
In experiment [35] the target is HIV-1 JR-CSF Env G324A (HIV-1 isolate JR-CSF) (UniProt P20871).
For experiment [36], the target named is HIV-1 JR-CSF Env F210A (HIV-1 JR-CSF) (UniProt P20871).
Experiment [37] has as its target HIV-1 JR-CSF Env E321aA (HIV-1 isolate JR-CSF) (UniProt P20871).
For experiment [38], the target named is HIV-1 JR-CSF Env N262A (HIV-1 JR-CSF) (UniProt P20871).
In experiment [39] the target is HIV-1 Env of isolate MGRM-F1-008 (HIV-1).

Some results are limits rather than exact numbers.

In experiment [1], 1443_C16 (PG16) (TCN-116) (antibody) came in with an IC50 (ug/ml), neutralization of 0.004 µg/mL. In experiment [2], the IC50, pseudovirus neutralization, 1 hour Virus/Ab Incubation was above 50 µg/mL and the IC50, pseudovirus neutralization, 18 hour Virus/Ab Incubation was above 50 µg/mL.
Turning to 1495_C14 (PGC14) (antibody), in experiment [2], the IC50, pseudovirus neutralization, 1 hour Virus/Ab Incubation came to 0.0069 µg/mL and the IC50, pseudovirus neutralization, 18 hour Virus/Ab Incubation is below 0.0025 µg/mL.
For 1496_C09 (PG9) (TCN-109) (antibody), the IC50, pseudovirus neutralization in [3] came to 0.2 µg/mL; in [9], 0.181 µg/mL; in experiment [10] it was 3.44 µg/mL. The IC50 (µg/mL), pseudovirus neutralization was 0.067 µg/mL in experiment [4], 24.8 µg/mL in experiment [6], 0.222 µg/mL in [7] and 5.36 µg/mL in [8]. The half-inhibitory concentration (IC50) in experiment [5] turned out to be 0.69 µg/mL. This substance also yielded an IC50 (ug/ml), neutralization in experiment [1] of 0.2 µg/mL.
As to 4838_L06 (PGT-121) (antibody), the neutralization IC80 in [11] came to 0.0188 µg/mL; in [12], 3.29 µg/mL; in experiment [13], 0.145 µg/mL; in experiment [15], 0.0806 µg/mL. Moreover, the neutralization IC90 was determined as 0.0361 µg/mL in experiment [11], 6.26 µg/mL in [12] and 0.151 µg/mL in experiment [15]. For the same substance, the neutralization IC95 in experiment [11] amounted to 0.0671 µg/mL; in experiment [12], 9.39 µg/mL; in experiment [13] it was 0.569 µg/mL; in experiment [14], 0.0687 µg/mL; in [15], 0.267 µg/mL.
In [16], 4858_P08 (PGT-123) (antibody) registered an IC50, pseudovirus neutralization above 10 µg/mL; an IC80, pseudovirus neutralization above 10 µg/mL; an IC90 (pseudovirus neutralization) above 10 µg/mL; an IC95, pseudovirus neutralization above 10 µg/mL.
Regarding 5123_A06 (PGT-125) (antibody), in [16], the neutralization IC50 was above 10 µg/mL, the neutralization IC80 is above 10 µg/mL, the neutralization IC90 was above 10 µg/mL and the neutralization IC95 was above 10 µg/mL.
Regarding 5141_B17 (PGT-126) (antibody), the IC50 in experiment [11] turned out to be 0.0046 µg/mL; in experiment [12] it was 0.0639 µg/mL; in [13], 0.0249 µg/mL; in experiment [14] it was 0.0076 µg/mL; in [15] it was 0.014 µg/mL. Also, the IC80 in experiment [11] turned out to be 0.0168 µg/mL; in experiment [12], 0.333 µg/mL; in experiment [13], 0.0681 µg/mL; in experiment [14], 0.0345 µg/mL; in experiment [15], 0.0454 µg/mL. Besides, the IC90 is 0.0359 µg/mL in experiment [11]; 0.832 µg/mL in experiment [12]; 0.123 µg/mL in [13]; 0.0831 µg/mL in experiment [14]; 0.09 µg/mL in experiment [15]. For the same substance, the 95% effect concentration (IC95) in experiment [11] came to 0.0728 µg/mL; in experiment [12], 1.8 µg/mL; in experiment [13] it was 0.213 µg/mL; in experiment [14], 0.185 µg/mL; in [15], 0.169 µg/mL.
In the case of PGT-121 (antibody), the Fold IC50 increase relative to wild-type in experiment [17] was 1.9 fold; in [18] it was 0.7 fold; in [19] it was 0.6 fold; in experiment [20], above 200 fold; in [21], 0.9 fold; in experiment [22] it was 0.8 fold. Besides, the Fold IC50 increase relative to wild-type in experiment [23] was 1.8 fold; in experiment [24], 0.7 fold; in [25] it was 0.6 fold; in [27], 1.4 fold; in experiment [28], above 50 fold; in experiment [29] it was 1 fold. For the same substance, the Fold IC50 increase relative to wild-type in experiment [30] was 3.3 fold; in experiment [31], 0.5 fold; in experiment [32] it was 0.9 fold; in experiment [33], 0.5 fold; in [34], 0.7 fold; in experiment [35] it was 16.6 fold. The Fold IC50 increase relative to wild-type stood at 1.5 fold in experiment [36], 0.3 fold in experiment [37] and 1.1 fold in experiment [38]. For the same substance, the IC50 neutralization in experiment [26] worked out at 0.0276 µg/mL.
Take PGT-122 (antibody): the Fold IC50 increase relative to wild-type in experiment [17] is 2.2 fold; in experiment [18], 0.5 fold; in experiment [19], 0.3 fold; in experiment [20] it was above 200 fold; in [21], 0.3 fold; in experiment [22], 1 fold. The Fold IC50 increase relative to wild-type was 0.8 fold in experiment [23]; 1.1 fold in experiment [24]; 0.5 fold in experiment [25]; 0.8 fold in [27]; above 50 fold in [28]; 0.5 fold in experiment [29]. Further, the Fold IC50 increase relative to wild-type turned out to be 3.5 fold in experiment [30]; 0.3 fold in [31]; 1 fold in experiment [32]; 0.8 fold in [33]; 0.6 fold in [34]; 12.5 fold in [35]. In addition, the Fold IC50 increase relative to wild-type was found to be 2.6 fold in experiment [36], 0.4 fold in experiment [37] and 1.1 fold in experiment [38]. In addition, the IC50 neutralization in [26] is 0.0471 µg/mL.
As to PGV04 (antibody), the IC50, pseudovirus neutralization is above 50 µg/mL in experiment [3], 24.2 µg/mL in experiment [9] and 0.142 µg/mL in [10]. For the same substance, the IC50 (µg/mL), pseudovirus neutralization in [4] worked out at 0.149 µg/mL; in experiment [6] it was 0.454 µg/mL; in [7] it was 2.52 µg/mL; in experiment [39] it was 1.03 µg/mL; in experiment [8], 2.76 µg/mL. In experiment [5], this substance had an IC50 of 0.54 µg/mL.
VRC01 (antibody) had an IC50, pseudovirus neutralization in [39] of 1.11 µg/mL.

Broadly, the IC50 is the concentration that inhibits the measured activity by half. Lower therefore signals greater potency in that assay. Usually IC80 stands for the point of the concentration-response curve where the effect stands at 80%. What is called IC90 is the point of the concentration-response curve where the effect stands at 90%. Higher therefore signals a need for much substance. What is called IC95 is the concentration at which the effect reaches the 95% level. A lower IC95 goes with greater potency.
